Measurements reported in patent US20140057840A1, “ANTI-ANDROGENIC AGENT, SEBUM SECRETION BLOCKER, HAIR GROWTH STIMULANT, AND FOOD OR BEVERAGE” (LOTTE CO., LTD., priority 2009, published 2014).

What was measured:
androgen receptor = target: T1, androgen receptor (Mus musculus, UniProt P19091); experiment: Androgen receptor binding blocking test (DHT-dependent proliferation of SC-3 cells, MTT assay); format: cell-based; conditions: SC-3 cell, 10^−8M DHT, FIG. 2
T1 construct: An androgen-dependent mouse breast cancer cell SC-3 cell; endogenous in cells; host or cells: SC-3 mouse breast cancer cells
T1 sequence (P19091 1-899): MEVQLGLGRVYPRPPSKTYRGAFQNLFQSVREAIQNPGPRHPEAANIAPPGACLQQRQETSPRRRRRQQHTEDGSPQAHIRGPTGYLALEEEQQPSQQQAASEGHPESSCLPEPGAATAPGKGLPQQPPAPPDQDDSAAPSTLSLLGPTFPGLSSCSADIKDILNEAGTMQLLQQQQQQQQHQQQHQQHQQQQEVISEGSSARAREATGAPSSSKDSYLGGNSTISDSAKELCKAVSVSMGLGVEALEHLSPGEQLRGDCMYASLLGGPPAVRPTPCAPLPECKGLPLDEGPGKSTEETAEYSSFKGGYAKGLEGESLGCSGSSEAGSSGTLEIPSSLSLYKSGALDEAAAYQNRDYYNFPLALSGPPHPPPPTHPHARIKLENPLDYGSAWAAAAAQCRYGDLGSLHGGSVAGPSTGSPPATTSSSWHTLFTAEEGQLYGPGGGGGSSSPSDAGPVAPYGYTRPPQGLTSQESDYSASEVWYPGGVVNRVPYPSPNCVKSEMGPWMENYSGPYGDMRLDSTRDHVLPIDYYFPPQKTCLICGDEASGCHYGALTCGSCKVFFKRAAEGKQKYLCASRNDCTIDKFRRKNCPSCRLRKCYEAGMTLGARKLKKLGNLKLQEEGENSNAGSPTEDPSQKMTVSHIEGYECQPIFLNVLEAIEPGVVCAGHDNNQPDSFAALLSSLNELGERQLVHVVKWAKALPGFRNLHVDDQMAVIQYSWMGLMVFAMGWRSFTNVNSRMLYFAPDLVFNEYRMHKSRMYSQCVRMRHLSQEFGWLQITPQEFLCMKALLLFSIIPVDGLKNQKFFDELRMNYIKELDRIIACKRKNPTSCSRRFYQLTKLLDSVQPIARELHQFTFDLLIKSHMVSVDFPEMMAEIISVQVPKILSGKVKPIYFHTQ
Method: 24 Hours later, the culture medium was exchanged with HMB medium (0.1% BSA-containing Ham F12+MEM medium) to which the test sample and 10^−8M DHT were added, and the cell was cultured for 48 hours.
Then, in accordance with MTT assay, the cell proliferation was evaluated by measuring the absorbance at 570 nm, which is the absorption maximum of blue formazan.
To correct the influence of adherent cells, the absorbance at 650 nm was also measured simultaneously, and the difference between both absorbances was used as the produced amount of blue formazan. At the same time with the above, to examine the effect of the sample alone on SC-3 cell, the same culture and measurement were carried out by adding the sample alone, without adding DHT, to the HMB medium. […] Based on the measurement results, the binding blocking rate representing the anti-androgenic activity was determined using the following formula. […]
A: The absorbance when DHT was added but the sample was not added
B: The absorbance when DHT was not added and the sample was not added
C: The absorbance when DHT was added and the sample was added
D: The absorbance when DHT was not added but the sample was added

hamster sebocytes = experiment: Sebocyte culture test (sebum synthesis amount, Oil Red O staining); format: cell-based, golden hamster; conditions: medium with 1×10^−6M testosterone; for sebum synthesis amount suppressed to: about 2 weeks, FIG. 3
Method: 1. The test was carried out using a hamster sebocyte culture kit KB-1000 (manufactured by KURABO […] LTD.).
The sebocyte cell derived from the auricula of a normal golden hamster was inoculated in a 24-well plate in a density of 5.0×10^4 cells/well. During the test, the cell was cultured in medium containing testosterone in a concentration of 1×10^−6M.
2. The cell was cultured for several days until confluent, and the medium was exchanged with medium containing the test sample. The medium was exchanged with sample medium every other day and the culture was continued for about 2 weeks.
In this test, cow's lactoferrin was prepared to be used as the lactoferrin, and spironolactone was used as a control.
3. Then, using a sebum synthesis assay kit SE-3001 (manufactured by KURABO […], LTD.), a WST-8 solution was added to each well and incubated for 30 minutes at 37° C. The supernatant was assayed at a wavelength of 450 nm, and the number of viable cell was counted.
4. Further, the supernatant was stained with Oil Red O and observed under a microscope while extracted with 100% isopropanol and measured at a wavelength of 520 nm for the lipid synthesis amount.
The correction was made using the following formula, and the lipid synthesis amount per cell was compared.
Comparison of lipid synthesis amount per cell=absorbance B/absorbance A
Absorbance A: cell number measured value (450 nm)
Absorbance B: lipid synthesis amount measured value (520 nm)

[1] = system: testosterone 5α-reductase; experiment: Testosterone 5α-reductase blocking test; format: biochemical; conditions: result in words; enzyme solution S-9; FIG. 1
Method: 1. 0.5 ml of 5 mM Tris-HCl buffer solution (pH 7.2) was added to 0.1 ml of 3.0 mM testosterone solution (dissolved in propylene glycol).
2. Further, 0.1 ml of 6.7 mM NADPH solution (dissolved in 5 mM Tris-HCl buffer solution (pH 7.2)) and 0.05 ml of a sample solution (dissolved in 50% ethanol) were added thereto, the mixture was preheated at 37° C. and 0.1 ml of an enzyme solution (S-9, Oriental Yeast Co., Ltd.) was added to incubate for 1 hour.
In this test, cow's lactoferrin was prepared to be used as the lactoferrin, and saw palmetto was used as a control.
3. Then, 3 ml of dichloromethane was added to terminate the reaction, 0.5 ml of an internal standard solution (0.1 mg/ml of p-hydroxybenzoic acid n-hexyl ester) was added thereto followed by shaking for 10 minutes, and the mixture was centrifuged at 3000 rpm for 10 minutes.
4. The dichloromethane layer was separated, collected and dried under reduced pressure. […] The residual testosterone was measured by HPLC from the obtained sample solution.
The measurement was carried out by eluting with methanol/water (65/35) and monitoring at 254 nm under the conditions of using a YMC A-302 (internal diameter 4.6×150 mm) column at a column temperature of 40° C. at a flow rate of 1 ml/min. The measurement was carried out using the internal standard substance method and the blocking rate (%) was determined using the following formula. […]

B1: lactoferrin (protein, UniProt P24627 20-708, looked up)
Lactotransferrin: APRKNVRWCTISQPEWFKCRRWQWRMKKLGAPSITCVRRAFALECIRAIAEKKADAVTLDGGMVFEAGRDPYKLRPVAAEIYGTKESPQTHYYAVAVVKKGSNFQLDQLQGRKSCHTGLGRSAGWIIPMGILRPYLSWTESLEPLQGAVAKFFSASCVPCIDRQAYPNLCQLCKGEGENQCACSSREPYFGYSGAFKCLQDGAGDVAFVKETTVFENLPEKADRDQYELLCLNNSRAPVDAFKECHLAQVPSHAVVARSVDGKEDLIWKLLSKAQEKFGKNKSRSFQLFGSPPGQRDLLFKDSALGFLRIPSKVDSALYLGSRYLTTLKNLRETAEEVKARYTRVVWCAVGPEEQKKCQQWSQQSGQNVTCATASTTDDCIVLVLKGEADALNLDGGYIYTAGKCGLVPVLAENRKSSKHSSLDCVLRPTEGYLAVAVVKKANEGLTWNSLKDKKSCHTAVDRTAGWNIPMGLIVNQTGSCAFDEFFSQSCAPGADPKSRLCALCAGDDQGLDKCVPNSKEKYYGYTGAFRCLAEDVGDVAFVKNDTVWENTNGESTADWAKNLNREDFRLLCLDGTRKPVTEAQSCHLAVAPNHAVVSRSDRAAHVKQVLLHQQALFGKNGKNCPDKFCLFKSETKNLLFNDNTECLAKLGGRPTYEEYLGTEYVTAIANLKKCSTSPLLEACAFLTR
notes: cow's lactoferrin; protein present in secretory fluids such as milk, tears, saliva, bile of mammals
- binding blocking activity (binding blocking rate) (androgen receptor; concentration of 60 ppm, 48 hours): about 85%
- binding blocking activity, concentration dependence (androgen receptor; result in words): concentration-dependent binding blocking activity
- sebum synthesis amount suppressed to (hamster sebocytes; 10 ppm): 60%
- sebum synthesis amount suppressed to (hamster sebocytes; 20 ppm): 60%
- sebum synthesis amount, concentration dependence (hamster sebocytes; result in words, microscopic observation and absorbance measurement): suppressed the sebum synthesis amount in a concentration-dependent manner
- testosterone 5α-reductase blocking activity [1]: no testosterone 5α-reductase blocking activity
